In patent US20220184172:

Key:
[1] = tested on: recombinant Caspase-6 (Origene, Cat. TP760261)
[2] = tested on: purified Bax-HA expressed in HEK293T cells
[3] = tested on: T1, recombinant Bid (R&D Systems, Cat. 846-BD-50)
T1 sequence: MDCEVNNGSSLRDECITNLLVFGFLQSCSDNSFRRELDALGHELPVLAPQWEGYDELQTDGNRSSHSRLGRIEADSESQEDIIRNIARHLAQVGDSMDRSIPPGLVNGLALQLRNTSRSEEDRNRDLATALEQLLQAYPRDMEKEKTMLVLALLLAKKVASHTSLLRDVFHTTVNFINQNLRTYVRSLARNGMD

[4] = tested on: purified Bid-HA expressed in HEK293T cells
[5] = tested on: purified caspase-6-myc expressed in HEK293T cells

recombinant AMPKα1β1γ1 active kinase, sequence (Q13131 whole entry): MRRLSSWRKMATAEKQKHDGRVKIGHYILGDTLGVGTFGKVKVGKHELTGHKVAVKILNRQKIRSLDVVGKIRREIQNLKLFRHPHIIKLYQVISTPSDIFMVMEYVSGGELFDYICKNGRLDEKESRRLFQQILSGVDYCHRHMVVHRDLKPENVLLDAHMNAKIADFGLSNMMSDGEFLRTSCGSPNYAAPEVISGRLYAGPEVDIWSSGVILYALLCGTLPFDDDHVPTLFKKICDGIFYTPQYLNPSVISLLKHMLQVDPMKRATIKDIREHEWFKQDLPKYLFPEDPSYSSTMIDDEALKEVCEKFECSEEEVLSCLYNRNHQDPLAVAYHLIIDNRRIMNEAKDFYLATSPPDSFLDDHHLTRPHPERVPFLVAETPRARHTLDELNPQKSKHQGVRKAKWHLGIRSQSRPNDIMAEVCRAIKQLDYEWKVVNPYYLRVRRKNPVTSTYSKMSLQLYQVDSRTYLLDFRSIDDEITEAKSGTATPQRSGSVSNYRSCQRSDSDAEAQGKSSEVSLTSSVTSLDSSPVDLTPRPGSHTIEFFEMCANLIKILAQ
recombinant AMPKα1β1γ1 active kinase, sequence (Q9Y478 2-270, further chain): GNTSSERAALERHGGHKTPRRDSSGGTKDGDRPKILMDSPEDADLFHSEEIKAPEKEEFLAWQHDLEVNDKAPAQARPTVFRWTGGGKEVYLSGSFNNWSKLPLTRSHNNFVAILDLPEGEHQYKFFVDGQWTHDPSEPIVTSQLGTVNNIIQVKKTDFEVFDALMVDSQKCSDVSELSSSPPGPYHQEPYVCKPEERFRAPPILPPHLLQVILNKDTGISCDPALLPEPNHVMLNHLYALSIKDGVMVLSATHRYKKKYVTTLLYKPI
recombinant AMPKα1β1γ1 active kinase, sequence (P54619 whole entry, further chain): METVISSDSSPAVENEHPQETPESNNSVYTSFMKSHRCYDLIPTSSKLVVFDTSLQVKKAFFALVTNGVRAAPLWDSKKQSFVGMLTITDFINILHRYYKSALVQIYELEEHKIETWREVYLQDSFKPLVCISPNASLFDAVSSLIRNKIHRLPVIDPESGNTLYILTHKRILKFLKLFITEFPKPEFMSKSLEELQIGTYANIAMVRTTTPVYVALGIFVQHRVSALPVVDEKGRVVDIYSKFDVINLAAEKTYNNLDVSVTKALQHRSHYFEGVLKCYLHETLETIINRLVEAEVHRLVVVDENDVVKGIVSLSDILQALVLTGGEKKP
recombinant AMPKα2β1γ1 active kinase, sequence (P54646 whole entry): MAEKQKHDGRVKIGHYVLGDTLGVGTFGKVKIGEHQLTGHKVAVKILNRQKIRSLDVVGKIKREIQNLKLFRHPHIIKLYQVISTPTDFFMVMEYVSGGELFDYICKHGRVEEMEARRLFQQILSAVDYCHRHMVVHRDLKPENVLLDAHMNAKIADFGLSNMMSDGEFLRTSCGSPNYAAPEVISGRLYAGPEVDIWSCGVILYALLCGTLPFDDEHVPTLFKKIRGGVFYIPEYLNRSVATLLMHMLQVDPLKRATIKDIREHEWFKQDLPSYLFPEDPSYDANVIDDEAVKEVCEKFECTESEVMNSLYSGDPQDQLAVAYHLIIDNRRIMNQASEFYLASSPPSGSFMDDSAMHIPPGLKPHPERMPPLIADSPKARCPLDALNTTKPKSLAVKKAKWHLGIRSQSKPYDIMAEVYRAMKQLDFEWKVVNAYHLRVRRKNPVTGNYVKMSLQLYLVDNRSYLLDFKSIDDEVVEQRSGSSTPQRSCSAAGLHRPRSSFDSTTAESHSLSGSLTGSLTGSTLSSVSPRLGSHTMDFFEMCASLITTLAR
recombinant AMPKα2β1γ1 active kinase, sequence (Q9Y478 2-270, further chain): as the sequence (Q9Y478 2-270, further chain) above
recombinant AMPKα2β1γ1 active kinase, sequence (P54619 whole entry, further chain): as the sequence (P54619 whole entry, further chain) above

## active caspase-3
[1]
  in vitro cleavage assay: procaspase-6 was directly cleaved by caspase-3 and -7, but not caspase-8 or -9

## active caspase-6
[2]
  in vitro cleavage assay: active caspase-6 cleaved purified Bcl2 family protein Bid (BH3 interacting-domain death agonist), but not Bax (Bcl2 associated X) in vitro
[3]
  in vitro cleavage assay: Active caspase-6 cleaves Bid to generate two cleaved peptide fragments
[4]
  in vitro cleavage assay: active caspase-6 cleaved purified Bcl2 family protein Bid (BH3 interacting-domain death agonist), but not Bax (Bcl2 associated X) in vitro

## active caspase-7
[1]
  in vitro cleavage assay: procaspase-6 was directly cleaved by caspase-3 and -7, but not caspase-8 or -9

## active caspase-8
[1]
  in vitro cleavage assay: procaspase-6 was directly cleaved by caspase-3 and -7, but not caspase-8 or -9

## active caspase-9
[1]
  in vitro cleavage assay: procaspase-6 was directly cleaved by caspase-3 and -7, but not caspase-8 or -9

## recombinant AMPKα1β1γ1 active kinase
[5]
  in vitro kinase assay, phosphorylation of Ser257 (FIG. 15C): Both recombinant AMPKα1 and AMPKα2 directly phosphorylated procaspase-6 at Ser^257 in vitro
[1]
  in vitro kinase assay, phosphorylation of Ser257: Both recombinant AMPKα1 and AMPKα2 directly phosphorylated procaspase-6 at Ser^257 in vitro

## recombinant AMPKα2β1γ1 active kinase
[1]
  in vitro kinase assay, phosphorylation of Ser257: Both recombinant AMPKα1 and AMPKα2 directly phosphorylated procaspase-6 at Ser^257 in vitro
